Data reported in US20220363763A1 (ABL BIO, published 2022).
Where a chain is given by its changes, count along the chain named. One block for each binder: values may come before it.

Tests used:
[1] = molecular target: T1, human LAG3 (construct not stated) (human, UniProt P18627 23-450, limits assumed); assay: BLI Octet Red 96, affinity ranking
T1 construct: also called human LAG3 protein; antigen
T1 sequence (looked up): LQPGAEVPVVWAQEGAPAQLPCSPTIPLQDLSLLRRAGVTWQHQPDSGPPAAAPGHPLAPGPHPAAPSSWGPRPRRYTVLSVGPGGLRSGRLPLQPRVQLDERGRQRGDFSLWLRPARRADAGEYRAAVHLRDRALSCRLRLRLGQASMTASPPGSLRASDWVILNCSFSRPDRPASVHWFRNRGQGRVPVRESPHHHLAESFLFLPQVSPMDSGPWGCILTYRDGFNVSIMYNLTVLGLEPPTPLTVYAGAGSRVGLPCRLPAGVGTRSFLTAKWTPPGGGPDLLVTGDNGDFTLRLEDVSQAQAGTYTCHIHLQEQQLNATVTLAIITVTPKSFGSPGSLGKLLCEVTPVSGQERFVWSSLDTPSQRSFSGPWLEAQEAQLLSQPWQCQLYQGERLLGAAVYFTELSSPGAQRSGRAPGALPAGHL

[2] = molecular target: T2, recombinant his-tag human LAG3-ECD protein (human, UniProt P18627 23-450); assay: SPR Biacore T200, antibody captured by anti-human Fc, LAG3-ECD-his injected
T2 construct: extracellular domain; not shown: his tag
T2 sequence (looked up): T1 sequence (looked up)
Description: The binding of the S20, S24, S27, S31, S87, S119, S120, S128, S136, S161 and T99 antibodies to recombinant his-tag human LAG3-ECD protein was examined by Biacore T200 using a capture method. Anti-LAG3 antibodies were captured using anti-human Fc antibody. The anti-human Fc antibody was coated on chip. Serial concentrations of his-tag human LAG3-ECD protein (0-4 nM) were injected over capture antibodies at the flow rate of 30 μl/min. The dissociation phase was 900 s or 550 s. The Biacore results for the anti-LAG3 antibodies have shown that these anti-LAG3 antibodies are high affinity binder to human LAG3.

[3] = molecular target: T3, human PD-L1 (construct not stated) (human, UniProt Q9NZQ7 19-239, limits assumed); assay: SPR Biacore, affinity ranking
T3 construct: also called B7-H1 (PD-L1); PD-L1 protein

[4] = molecular target: T4, human PD-L1-his taq protein (human, UniProt Q9NZQ7 19-239, limits assumed); assay: SPR Biacore T200, antibody captured, PD-L1-his injected
T4 construct: also called recombinant PD-L1 protein; recombinant human PD-L1; not shown: his tag
Description: The binding of the humanized antibodies to recombinant PD-L1 protein (human PD-L1-his taq) was tested by BIACORE™ using a capture method. The HL1210-3 mouse mAb were captured using anti-mouse Fc antibody coated on a CM5 chip. A series dilution of human PD-L1-his taq protein was injected over captured antibody for 3 mins at a flow rate of […]. The antigen was allowed to dissociate for 900 s. All the experiments were carried out on a Biacore T200.

T3 sequence (Q9NZQ7 19-239 limits assumed): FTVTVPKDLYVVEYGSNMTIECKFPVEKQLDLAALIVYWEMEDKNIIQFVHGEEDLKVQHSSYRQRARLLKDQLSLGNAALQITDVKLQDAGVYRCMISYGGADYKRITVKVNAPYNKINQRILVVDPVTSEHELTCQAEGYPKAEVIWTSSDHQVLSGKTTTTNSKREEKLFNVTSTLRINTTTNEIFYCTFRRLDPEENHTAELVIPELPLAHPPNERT
T4 sequence (Q9NZQ7 19-239 limits assumed): as above

B1: 147H-11 (antibody, V domains shown)
VH: EVQLVQSGAEVKKPGASVKVSCKASGYTFTNYWLGWVRQAPGQGLEWMGDIYPGGDYINYNEKFKGKATLTADTSISTAYMELSRLRSDDTAVYYCARPNLPGDYWGQGTTVTVSS
VL: DIVMTQSPLSLPVTPGEPASISCRSSKSLLHSNGITYLYWYLQKPGQSPQLLIYQVSNLASGVPDRFSGSGSGTDFTLKISRVEAEDVGVYYCAQNLELPWTFGGGTKVEIK
notes: Common light chain; human gamma 1 / kappa constant domains
- Kd [1]: 42.2 nM
- koff [1]: 0.00451 s⁻¹
- kon [1]: 107000 M⁻¹ s⁻¹

B3: 147H-2 (antibody, V domains shown)
VH: B1 VH with E1Q, K67R, A68V, L70M
VL: B1 VL
notes: as for B1
- Kd [1]: 31.6 nM
- koff [1]: 0.00314 s⁻¹
- kon [1]: 99300 M⁻¹ s⁻¹

B6: 147H-1 (antibody, V domains shown)
VH: B1 VH with E1Q, K67R, A68V, L70M, A72R
VL: B1 VL
- Kd [1]: 35.4 nM
- koff [1]: 0.00386 s⁻¹
- kon [1]: 109000 M⁻¹ s⁻¹

B7: 147H-3 (antibody, V domains shown)
VH: B1 VH with E1Q, K67R, A68V
VL: B1 VL
notes: as for B1
- Kd [1]: 36.5 nM
- koff [1]: 0.00338 s⁻¹
- kon [1]: 92500 M⁻¹ s⁻¹

B9: 147H-4 (antibody, V domains shown)
VH: B1 VH with E1Q
VL: B1 VL
notes: as for B1
- Kd [1]: 39.8 nM
- koff [1]: 0.00343 s⁻¹
- kon [1]: 86200 M⁻¹ s⁻¹

B10: 147H-5 (antibody, V domains shown)
VH: B1 VH with E1Q, M48I
VL: B1 VL
notes: as for B1
- Kd [1]: 31.3 nM
- koff [1]: 0.003 s⁻¹
- kon [1]: 95800 M⁻¹ s⁻¹

B16: A1 (antibody, V domains shown)
VH: EVQLVESGGGLVQPGGSLRLSCAASGFTFSSYDMSWVRQAPGKSLEWVATISDAGGYIYYRDSVKGRFTISRDNAKNSLYLQMNSLRDEDTAVYICARELLHRYALDYWGQGTTVTVSS
VL: DIQMTQSPSSLSASVGDRVTITCKASQDVTPAVAWYQQKPGKAPKLLIYSTSSRYTGVPSRFSGSGSGTDFTFTISSLQPEDIATYYCQQHYTTPLTFGQGTKLEIK
- Kd [3]: 1.36 nM
- koff [3]: 0.000276 s⁻¹
- kon [3]: 203000 M⁻¹ s⁻¹

B17: B1 (antibody, V domains shown)
VH: B16 VH with L100I, L101F, H102N
VL: B16 VL
- Kd [3]: 1.6 nM
- koff [3]: 0.000261 s⁻¹
- kon [3]: 163000 M⁻¹ s⁻¹

B18: A3 (antibody, V domains shown)
VH: B16 VH with L100F, L101G, H102K
VL: B16 VL with Y92S, T93D, T94A
- Kd [3]: 1.49 nM
- koff [3]: 0.000324 s⁻¹
- kon [3]: 218000 M⁻¹ s⁻¹

B19: A2 (antibody, V domains shown)
VH: B16 VH with L101R, H102G
VL: B16 VL
- Kd [3]: 2.55 nM
- koff [3]: 0.000475 s⁻¹
- kon [3]: 187000 M⁻¹ s⁻¹

Other lines, results leading:

- Kd [1]: 32.3 nM
- koff [1]: 0.00533 s⁻¹
- kon [1]: 165000 M⁻¹ s⁻¹
B2: 147H-8 (antibody, V domains shown)
VH: B1 VH with K67R, A68V, L70M, A72R
VL: B1 VL
notes: as for B1

- Kd [1]: 66.4 nM
- koff [1]: 0.00448 s⁻¹
- kon [1]: 67400 M⁻¹ s⁻¹
B4: 147H-9 (antibody, V domains shown)
VH: B1 VH with K67R, A68V, L70M
VL: B1 VL
notes: as for B1

- Kd [1]: 82.3 nM
- koff [1]: 0.00404 s⁻¹
- kon [1]: 49100 M⁻¹ s⁻¹
B5: 147H-10 (antibody, V domains shown)
VH: B1 VH with K67R, A68V
VL: B1 VL
notes: as for B1

- Kd [1]: 55.2 nM
- koff [1]: 0.00344 s⁻¹
- kon [1]: 62300 M⁻¹ s⁻¹
B8: 147H-12 (antibody, V domains shown)
VH: B1 VH with M48I
VL: B1 VL
notes: as for B1

- Kd [2]: 0.00251 nM
- koff [2]: 2.33e-06 s⁻¹
- kon [2]: 928000 M⁻¹ s⁻¹
B11: NLAG3-HDB169-S87 (antibody, human IgG1, V domains shown)
VH: QVQLVQSGAEVKKPGSSVKVSCKASGGTFSSYAISWVRQAPGQGLEWMGGIIPIFGTANYAQKFQGRVTITADESTSTAYMELSSLRSEDTAVYYCAKDIRWYYGMDVWGQGTTVTVSS
VL: DIVMTQSPSSVSAFVGDRVTITCRASQGVSSWLAWFQQKPGKAPKLLIYAASTLQSGVPSRFSGRGYGTEFTLTISSLQPEDLATYYCQQVKSFPLTFGGGTKVDIKR
notes: Short label tied by its unique suffix

- Kd [2]: 0.104 nM
- koff [2]: 8.27e-05 s⁻¹
- kon [2]: 798000 M⁻¹ s⁻¹
B12: NLAG3-HDB169-S136 (antibody, human IgG1, V domains shown)
VH: QVQLVQSGAEVKKPGSSVKVSCKASGGTFSSYAISWVRQAPGQGLEWMGGIIPIFGTANYAQKFQGRVTITADESTSTAYMELSSLRSEDTAVYYCTRGQDSTWYSSFDYWGQGTLVTVSS
VL: AIRMTQSPSSLSASVGDRVTITCRASQSISSYLNWYQQKPGKAPNLLIYAVSTLQSGVPSRFSGSGSGTVFTLTISSLQPEDFATYFCQQGNSFPLTFGGGTKVEIKR
notes: as for B11

- Kd [2]: 0.0443 nM
- koff [2]: 7.33e-06 s⁻¹
- kon [2]: 165000 M⁻¹ s⁻¹
B13: NLAG3-HDB323-S20 (antibody, human IgG1, V domains shown)
VH: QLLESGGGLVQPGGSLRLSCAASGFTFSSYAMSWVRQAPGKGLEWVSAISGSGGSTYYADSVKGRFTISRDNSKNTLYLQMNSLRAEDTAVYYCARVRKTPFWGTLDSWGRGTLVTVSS
VL: VIWMTQSPSSLSASVGDRVTITCRASQGVSSYLAWYQQKPGKAPKLLIYAASSLQSGVPSRFSGSGSGTEFTLTISSLQPEDFATYYCQQTNWFPLTFGPGTRLEIKR
notes: Human IgG1 / kappa (pFUSEss-CHIg-hG1, pFUSE2ss-CLIg-hk); Short label tied by its unique suffix

- Kd [2]: 0.815 nM
- koff [2]: 0.000817 s⁻¹
- kon [2]: 1e+06 M⁻¹ s⁻¹
B14: NLAG3-HDB169-S128 (antibody, human IgG1, V domains shown)
VH: QVQLVQSGAEVKKPGSSVKVSCKASGGTFSSYAISWVRQAPGQGLEWMGGIIPIFGTANYAQKFQGRVTITADESTSTAYMELSSLRSEDTAVYYCARDAGPVGYYGMDVWGQGTMVTVSS
VL: AIQMTQSPSSLSASVGDRVTITCRASQGISSWLAWYQQKPGKAPKLLIYAASSLQSGVPSRFSGSGSGTDFTLTISRLQPEDFATYYCQQAKSFPLTFGGGTKVEIKR
notes: as for B11

- Kd [2]: 1.88 nM
- koff [2]: 0.00264 s⁻¹
- kon [2]: 1.4e+06 M⁻¹ s⁻¹
B15: NLAG3-HDB169-S120 (antibody, human IgG1, V domains shown)
VH: QVQLVQSGAEVKKPGSSVKVSCKASGGTFSSYAISWVRQAPGQGLEWMGGIIPIFGTANYAQKFQGRVTITADESTSTAYMELSSLRSEDTAVYYCARSGDRYDFWSGYWGQGTLVTVSS
VL: B14 VL with A1E, Q3V, M4L, L11V, Q27R, S53T, R77S
notes: as for B11

- Kd [4]: 0.867 nM
- koff [4]: 7.53e-05 s⁻¹
- kon [4]: 86800 M⁻¹ s⁻¹
B20: Hu1210-42 (antibody, V domains shown)
VH: B16 VH with A54V, R61S, L100F, L101G, H102K
VL: B16 VL
notes: Hu1210 VH.4e x Vk.1; human gamma 1 / kappa constant domains

- Kd [4]: 1.49 nM
- koff [4]: 0.000131 s⁻¹
- kon [4]: 87700 M⁻¹ s⁻¹
B21: Hu1210-40 (antibody, V domains shown)
VH: B16 VH with D53E, A54G, R61S, L100F, L101G, H102K
VL: B16 VL
notes: Hu1210 VH.4c x Vk.1; human gamma 1 / kappa constant domains

- Kd [4]: 0.838 nM
- koff [4]: 0.000108 s⁻¹
- kon [4]: 129000 M⁻¹ s⁻¹
B22: Hu1210-28 (antibody, V domains shown)
VH: B16 VH with S44G, A54G, R61S, D88A, L100F, L101G, H102K, T114L
VL: DIQMTQSPSSLSASVGDRVTITCKASQDVTPAVAWYQQKPGKAPKLLIYSTSSRYTGVPDRFTGSGSGTDFTLTISSLQPEDFATYYCQQHYTTPLTFGQGTKLEIKR
notes: Hu1210 VH.5a x Vk.2a; human gamma 1 / kappa constant domains

- Kd [2]: 6.73 nM
- koff [2]: 0.012 s⁻¹
- kon [2]: 1.79e+06 M⁻¹ s⁻¹
B23: NLAG3-HDB169-S24 (antibody, human IgG1, V domains shown)
VH: QVQLVQSGAEVKKPGSSVKVSCKASGGTFSSYAISWVRQAPGQGLEWMGGIIPIFGTANYAQKFQGRVTITADESTSTAYMELSSLRSEDTAVYYCTREPHFDYWGQGTLVTVSS
VL: EIVMTQSPSSLSASVGDRVTITCQASQDISNYLNWYQQKPGKAPKLLIYDASNLETGVPSRFSGSGSGTEFTLTISSLRPEDFATYFCQQADSFPITFGQGTRLEIKR
notes: as for B11

- Kd [2]: 0.892 nM
- koff [2]: 0.000553 s⁻¹
- kon [2]: 620000 M⁻¹ s⁻¹
B24: NLAG3-HDB323-S161 (antibody, human IgG1, V domains shown)
VH: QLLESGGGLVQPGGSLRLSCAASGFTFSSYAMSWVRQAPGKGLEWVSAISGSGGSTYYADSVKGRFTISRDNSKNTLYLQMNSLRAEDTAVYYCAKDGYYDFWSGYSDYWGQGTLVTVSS
VL: AIQLTQSPSSLSASVGDRVTITCRASEGISGWLAWYQQIPGKAPKLLIYAASSLETGVPSRFSGSGYGTDFTLTISSLQPEDFATYYCQQADSFPFTFGPGTKVEIKR
notes: as for B11
